Results: paper PMC6751238, “The first fungal laccase with an alkaline pH optimum obtained by directed evolution and its application in indigo dye decolorization” (AMB Express, 2019)
Substitutions are numbered along the chain they refer to. In names and notes the source's numbering stands.

Assays:
purified protein [1] = substrate: COc1ccccc1O; experiment: purified protein
purified protein [2] = substrate: COc1cccc(OC)c1O; experiment: purified protein; type: biochemical, Coprinopsis cinerea
[3] = pH 6.5, 70 °C as printed in table (text says 60 °C), pH 6.5
[4] = PIE5, pH 8.5, 60 °C, pH 8.5, 60.0 °C

B1: rLcc9 (Coprinopsis cinerea okayama7#130; E116K/I393T) (protein)
chain: QILGPTSTMTVSNIDASPDGFNRPVVAVNGQHPGPLVRANKGDNFRINVVNDLNDPTMLRQTSVHWHGVFQHGTAWADGPDGVTQCPIAQNGESFKYRFNAGNEAGTFWYHSHFGTQYCDGLRGPLVIYDPNDPHRNLYDVDNADTVITLVDWYHLQAPSIEGPALSDATLINGKGRRPGGPETDIAIVNVQRNRRYRFRLVSMSCDPNYKFSIDGHKLTVIEADGQLTEPLMVDEIQIFAGQRYSFVLSANRPVGNYWIRAIPNVGSNNLPNFSSGGINSAILRYAGAPNANPTSTPVTNPVALHESNLHALLNPGAPGGSGPADENIVLQMGLGPAGFEINGVTWANPDSPVMVQIMNGVPPADIVPSGATHTLPRNRVVEVSIPGFELAGPHPFHLHGHAFSVVRSAGSSTYNYENPVRRDVVDVGGASDNVTIRFTTDNPGPWFFHCHIEFHLVLGLAMVFMEAPSDIPSTSPPPPSWSELCPKFESLPASATSIQIVPTP
- Km (purified protein [1]; pH 6.5, 60 °C, pH 6.5, 60.0 °C): 110 µM
- kcat (purified protein [1]; pH 6.5, 60 °C, pH 6.5, 60.0 °C): 46 s⁻¹
- kcat/Km (purified protein [1]; pH 6.5, 60 °C, pH 6.5, 60.0 °C): 390000 M⁻¹ s⁻¹

B2: rLcc9 (Coprinopsis cinerea okayama7#130; I393T/N229D) (protein)
chain: B1 chain with K96E, N209D
- Km (purified protein [1]; pH 8.0, 60 °C, pH 8.0, 60.0 °C): 340 µM
- kcat (purified protein [1]; pH 8.0, 60 °C, pH 8.0, 60.0 °C): 82.5 s⁻¹
- kcat/Km (purified protein [1]; pH 8.0, 60 °C, pH 8.0, 60.0 °C): 230000 M⁻¹ s⁻¹

B3: rLcc9 (Coprinopsis cinerea okayama7#130) (protein)
chain: B1 chain with K96E, T373I
notes: lcc9 cDNA in pPIC9K (EcoRI/NotI), secreted from Pichia pastoris GS115, purified (DEAE-Sepharose); PIE5 = E116K/N229D/I393T
- Km (purified protein [1]; [3]): 90 µM
- kcat (purified protein [1]; [3]): 22.8 s⁻¹
- kcat/Km (purified protein [1]; [3]): 250000 M⁻¹ s⁻¹
- Km (purified protein [2]; pH 6.5, 60 °C): 2.3 mM
- kcat (purified protein [2]; pH 6.5, 60 °C): 69.4 s⁻¹
- kcat/Km (purified protein [2]; pH 6.5, 60 °C): 30000 M⁻¹ s⁻¹

B4: rLcc9 (Coprinopsis cinerea okayama7#130; N229D) (protein)
chain: B1 chain with K96E, N209D, T373I
notes: as for B3
- Km (purified protein [1]; pH 8.0, 60 °C, pH 8.0, 60.0 °C): 370 µM
- kcat (purified protein [1]; pH 8.0, 60 °C, pH 8.0, 60.0 °C): 87.3 s⁻¹
- kcat/Km (purified protein [1]; pH 8.0, 60 °C, pH 8.0, 60.0 °C): 230000 M⁻¹ s⁻¹
- Km (purified protein [2]; pH 8.0, 60 °C): 2.6 mM
- kcat (purified protein [2]; pH 8.0, 60 °C): 66.2 s⁻¹
- kcat/Km (purified protein [2]; pH 8.0, 60 °C): 25000 M⁻¹ s⁻¹

B5: rLcc9 (Coprinopsis cinerea okayama7#130; E116K/N229D) (protein)
chain: B1 chain with N209D, T373I
- Km (purified protein [1]; pH 8.0, 60 °C, pH 8.0, 60.0 °C): 340 µM
- kcat (purified protein [1]; pH 8.0, 60 °C, pH 8.0, 60.0 °C): 75.4 s⁻¹
- kcat/Km (purified protein [1]; pH 8.0, 60 °C, pH 8.0, 60.0 °C): 210000 M⁻¹ s⁻¹

B6: rLcc9 (Coprinopsis cinerea okayama7#130; E116K) (protein)
chain: B1 chain with T373I
- Km (purified protein [1]; pH 6.5, 60 °C, pH 6.5, 60.0 °C): 320 µM
- kcat (purified protein [1]; pH 6.5, 60 °C, pH 6.5, 60.0 °C): 85.8 s⁻¹
- kcat/Km (purified protein [1]; pH 6.5, 60 °C, pH 6.5, 60.0 °C): 250000 M⁻¹ s⁻¹

B7: rLcc9 (Coprinopsis cinerea okayama7#130; I393T) (protein)
chain: B1 chain with K96E
notes: as for B3
- Km (purified protein [1]; pH 7.0, 60 °C, pH 7.0, 60.0 °C): 140 µM
- kcat (purified protein [1]; pH 7.0, 60 °C, pH 7.0, 60.0 °C): 83.9 s⁻¹
- kcat/Km (purified protein [1]; pH 7.0, 60 °C, pH 7.0, 60.0 °C): 570000 M⁻¹ s⁻¹
- Km (purified protein [2]; pH 7.0, 60 °C): 1.2 mM
- kcat (purified protein [2]; pH 7.0, 60 °C): 49.2 s⁻¹
- kcat/Km (purified protein [2]; pH 7.0, 60 °C): 38000 M⁻¹ s⁻¹

B8: rLcc9 (Coprinopsis cinerea okayama7#130; E116K/I393T/N229D) (protein)
chain: B1 chain with N209D
notes: as for B3
- Km (purified protein [1]; [4]): 330 µM
- kcat (purified protein [1]; [4]): 62.9 s⁻¹
- kcat/Km (purified protein [1]; [4]): 180000 M⁻¹ s⁻¹
- Km (purified protein [2]; PIE5, pH 8.0, 60 °C): 5.7 mM
- kcat (purified protein [2]; PIE5, pH 8.0, 60 °C): 43.5 s⁻¹
- kcat/Km (purified protein [2]; PIE5, pH 8.0, 60 °C): 7500 M⁻¹ s⁻¹
